In publication PMC7083883, “The cryo-EM structure of the SNX–BAR Mvp1 tetramer” (Nature Communications, 2020):
Positions count from the first letter of the chain named. Numbers in names are those of the source.

T1: Mvp1 (Saccharomyces cerevisiae, UniProt P40959)
T1 construct: full-length, codons 1-511; E. coli; N-terminal His6-thrombin fusion or C-terminal MBP fusion cut off with PreScission; tetramer
T1 sequence (P40959 1-511): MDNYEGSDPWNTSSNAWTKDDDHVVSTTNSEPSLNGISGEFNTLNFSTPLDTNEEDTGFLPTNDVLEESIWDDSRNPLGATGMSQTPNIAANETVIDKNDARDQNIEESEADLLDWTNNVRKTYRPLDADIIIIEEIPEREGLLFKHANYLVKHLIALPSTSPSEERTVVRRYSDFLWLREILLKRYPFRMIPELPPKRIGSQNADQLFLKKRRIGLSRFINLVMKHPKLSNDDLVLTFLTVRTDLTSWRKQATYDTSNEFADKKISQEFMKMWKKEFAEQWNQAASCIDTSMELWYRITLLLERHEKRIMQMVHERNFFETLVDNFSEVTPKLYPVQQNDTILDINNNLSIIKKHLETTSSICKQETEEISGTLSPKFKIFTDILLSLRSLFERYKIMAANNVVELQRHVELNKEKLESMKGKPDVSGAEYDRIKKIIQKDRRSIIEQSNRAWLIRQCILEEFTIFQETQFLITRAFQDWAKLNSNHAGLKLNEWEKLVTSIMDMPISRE

B1: Mvp1 Δ2-100 (domain or fragment, S. cerevisiae, UniProt P40959 1-511, looked up)
chain: MARDQNIEESEADLLDWTNNVRKTYRPLDADIIIIEEIPEREGLLFKHANYLVKHLIALPSTSPSEERTVVRRYSDFLWLREILLKRYPFRMIPELPPKRIGSQNADQLFLKKRRIGLSRFINLVMKHPKLSNDDLVLTFLTVRTDLTSWRKQATYDTSNEFADKKISQEFMKMWKKEFAEQWNQAASCIDTSMELWYRITLLLERHEKRIMQMVHERNFFETLVDNFSEVTPKLYPVQQNDTILDINNNLSIIKKHLETTSSICKQETEEISGTLSPKFKIFTDILLSLRSLFERYKIMAANNVVELQRHVELNKEKLESMKGKPDVSGAEYDRIKKIIQKDRRSIIEQSNRAWLIRQCILEEFTIFQETQFLITRAFQDWAKLNSNHAGLKLNEWEKLVTSIMDMPISRE
notes: Mvp1, S. cerevisiae, codons 1-511 lacking residues 2-100; The purification told for this construct is that of the C-terminal MBP fusion, cleaved with PreScission; residues of the cleavage site probably remain at the C-terminus (surmised); also called Mvp1 lacking its N-terminus; source: E. coli BL21-Codon Plus(DE3)-RIPL, purified (amylose resin, anion exchange, SEC, PreScission cleavage, Superdex …)
B2: Mvp1 Δ2-78 (domain or fragment, S. cerevisiae, UniProt P40959 1-511, looked up)
chain: MGATGMSQTPNIAANETVIDKNDARDQNIEESEADLLDWTNNVRKTYRPLDADIIIIEEIPEREGLLFKHANYLVKHLIALPSTSPSEERTVVRRYSDFLWLREILLKRYPFRMIPELPPKRIGSQNADQLFLKKRRIGLSRFINLVMKHPKLSNDDLVLTFLTVRTDLTSWRKQATYDTSNEFADKKISQEFMKMWKKEFAEQWNQAASCIDTSMELWYRITLLLERHEKRIMQMVHERNFFETLVDNFSEVTPKLYPVQQNDTILDINNNLSIIKKHLETTSSICKQETEEISGTLSPKFKIFTDILLSLRSLFERYKIMAANNVVELQRHVELNKEKLESMKGKPDVSGAEYDRIKKIIQKDRRSIIEQSNRAWLIRQCILEEFTIFQETQFLITRAFQDWAKLNSNHAGLKLNEWEKLVTSIMDMPISRE
notes: source: E. coli BL21-Codon Plus(DE3)-RIPL, purified; not shown: His6 (pET-15b construct); MBP (pMW-variant construct; alternative to the His6 construct), C-terminal, cleaved
B3: Full-length Mvp1 (codons 1-511) (natural protein, S. cerevisiae, UniProt P40959 1-511, looked up)
chain: T1 sequence (P40959 1-511)
notes: Mvp1, S. cerevisiae sorting nexin with PX and BAR domains, codons 1-511, amplified from genomic DNA of W303A/alpha diploids; Two purification strategies: N-terminal His6 fusion with thrombin site (no cleavage described) or C-terminal MBP fusion cleaved with PreScission; also called wild type; SNX-BAR Mvp1; source: E. coli BL21-Codon Plus(DE3)-RIPL, purified (Ni-IDA or amylose resin, anion …)
B4: Mvp1 198KRI→AAA (natural protein, S. cerevisiae, UniProt P40959 1-511, looked up)
chain: T1 sequence (P40959 1-511) with K198A, R199A, I200A
notes: Mvp1, S. cerevisiae, codons 1-511 with residues 198-200 KRI changed to AAA in the PX PPII loop; also called Mut1; Mvp1 Mut1; source: E. coli BL21-Codon Plus(DE3)-RIPL, purified; not shown: His6 (pET-15b construct); MBP (pMW-variant construct; alternative to the His6 construct), C-terminal, cleaved

Columns and labels:
Mvp1 = target: T1, Mvp1; experiment: liposome sedimentation, SDS-PAGE; format: binding; settings: 5% PI3P in 95% DOPS liposomes (100 nm, 0.1 mg/ml); 1.2 µM protein; 20 mM Tris pH 7.5, 250 mM NaCl; 21 °C; DOPS-only liposomes as control
[1] = target: Mvp1 with an engineered PreScission site after residue 99, after cleavage (N-terminal sequence removed) (S. cerevisiae) (UniProt P40959); experiment: SEC-MALS; Superdex 200 10/300 GL, 20 mM TRIS/Cl pH 7.4, 250 mM NaCl unless stated (full-length Mvp1 also at 50 and 150 mM NaCl), 1.93 mM beta-mercaptoethanol; 500 ul of 20-21.2 uM protein injected (14 uM for Mvp1 Δ2-78); 0.3 ml/min
[2] = target: the molecule itself; experiment: as above
[3] = target: the molecule itself; experiment: cryo-EM structure; 2d and 3d classification of single particles of Mvp1 Mut1, ~5 uM protein, intermediate resolution (~7.7-8.2 Å)

Molecule | stoichiometry N [2] | other results
CCCCCCCC/C=C\CCCCCCCC(=O)OC[C@H](COP(=O)(O)O[C@@H]1[C@H](O)[C@H](OP(=O)(O)O)[C@@H](O)[C@H](O)[C@H]1O)OC(=O)CCCCCCC/C=C\CCCCCCCC [PI3P] | – | liposome sedimentation, SDS-PAGE (Mvp1): purified Mvp1, like SNX8 and several other SNX–BARs, bound to liposomes containing PI3P
Mvp1 with an engineered PreScission site after residue 99, after cleavage (N-terminal sequence removed) (from UniProt P40959 100-511) (domain or fragment) | – | stoichiometry N [1]: 2
B1 | 2 | –
B2 | 2 | –
B3 | 4 | –
B4 | – | stoichiometry N [3]: 2
